We go through six molecules from PMC11352241, “Detection of Hepatocellular Carcinoma in an Orthotopic Patient-Derived Xenograft with an Epithelial Cell Adhesion Molecule-Specific Peptide” (Cancers, 2024).

One may read the Kd as the equilibrium constant for the complex coming apart.

A short description of one data set: Serum stability. The data set is classed as in vitro ADME. The note with it: 30 μM IRDye800-labeled peptide in mouse serum, 37 °C, 0, 0.5, 1.0, 1.5, 2, 3, 4 and 24 h, analytical RP-HPLC area under the peak; R^2 = 0.99; n = 6 mice in each group; read-out: half-life T1/2 in mouse serum (converted). As for the experimental part:
IRDye800-labeled target peptide measuring 30 μM was incubated with mouse serum at time intervals ranging up to 24 h at 37 °C, and was monitored by analytical RP-HPLC. The relative peptide concentrations were determined by measuring the area under the peak (Waters, Breeze 2).

Data set [1] is described as follows: Peptide biodistribution in harvested organs. The class given is in vivo, mouse. The note with it: organs harvested 1.5 h post-injection, NIR fluorescence. As for the experimental part:
PDX-implanted mouse livers were exposed by making a small (1–2 cm) incision in the abdomen below the sternum. A custom laparoscope that collects white light and fluorescence images (λex = 785 nm) concurrently were used to image the liver region at 1.5 h post-injection via the tail vein [34]. IRDye800-labeled peptides, unlabeled peptide, and ICG were administrated as described above. Once imaging was completed, major organs, including the heart, spleen, lung, liver, brain, stomach, kidney, and intestine, were collected and imaged with white light and fluorescence to evaluate peptide biodistribution.

A short description of data set [2]: Animal necropsy for acute toxicity. The class given is in vivo, mouse. The note with it: healthy mice, 48 h post-injection, 300 μM, 200 μL PBS; heart, liver, spleen, lung, kidney, stomach, intestine, brain. Here is the method: Healthy mice were euthanized at 48 h post-injection with the IRDye800-labeled target peptide (300 μM, 200 μL PBS). Major organs, including liver, kidney, heart, lung, spleen, stomach, intestine, and brain, were resected and submitted for pathological evaluation to assess for acute toxicity.

The test system of data set [3] is human HCC patient-derived xenograft (PDX) tumors. Nature of the data set: In vivo whole-body NIR fluorescence imaging, orthotopic HCC PDX.
Description: Orthotopic HCC mice were used for imaging ~3–4 weeks post-implantation.
IRDye800-labeled target and control peptides (300 μM, 200 μL PBS), unlabeled target peptide (block, 1.5 mM, 100 μL), and ICG (2.46 mg/kg) were injected in tumor-bearing animals using the tail vein. Unlabeled target peptide was injected 30 min prior to the IRDye800-labeled target peptide to compete for binding. The Pearl Trilogy (LI-COR Biosciences) was used to collect whole-body NIR fluorescence images over a time frame of 24 h post-injection.
The next data set relates to tumors. The note with it: ICG, EPR effect; cited from earlier work. The source says: An IRDye800-labeled chimeric monoclonal antibody 323/A3 was used to detect a broad range of tumors found clinically. Cell-derived xenograft colon, breast, head and neck, and peritoneal carcinomatosis tumors were implanted orthotopically. Tumor nodules with millimeter dimensions were detected with NIR fluorescence imaging that were not otherwise visible. […] Also, a 7-mer peptide YQ-S2 was labeled with the NIR fluorophore MPA [36]. The peptide was character ... || Image-guided surgery aims to remove all cancerous tissues, and thus requires an effective strategy to discriminate tumor cells from non-tumor cells. NIR fluorescence imaging can be used as an adjunct to conventional laparoscopy to assist the surgeon to identify small and missed lesions. The spectra of white light illumination and IRDye800 fluorescence are sufficiently separated so that both modalities can be used concurrently during surgery. ICG is FDA-approved, and this contrast agent is currently being used clinically to identify HCC in real time. The non-specific NIR dye gathers in t ...

In data set [4] the target is T1, EpCAM (Homo sapiens, UniProt P16422).
T1 construct: endogenous in cells; host or cells: Hep3B human hepatocellular carcinoma cells
T1 sequence (P16422 24-314): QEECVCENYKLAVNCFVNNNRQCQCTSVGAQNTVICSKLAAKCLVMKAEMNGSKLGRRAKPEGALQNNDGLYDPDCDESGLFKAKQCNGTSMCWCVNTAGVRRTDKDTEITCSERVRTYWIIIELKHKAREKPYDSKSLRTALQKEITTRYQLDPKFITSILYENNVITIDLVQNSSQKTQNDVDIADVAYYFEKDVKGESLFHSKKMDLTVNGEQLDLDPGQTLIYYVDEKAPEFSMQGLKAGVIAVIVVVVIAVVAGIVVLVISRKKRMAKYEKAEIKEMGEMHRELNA
In words: Binding competition with unlabeled peptide on Hep3B cells. The data set is classed as cell-based. The note with it: confocal microscopy. As for the experimental part: Unlabeled target and control peptide was added to IRDye800-labeled target peptides to compete for binding to EpCAM. Inverted confocal microscopy (Leica, Wetzlar, Germany, Stellaris 5) was used to acquire the NIR fluorescence images, and intensities were measured with custom MATLAB (Mathworks) software (Matlab version R2023a).

For data set [5], the target named is EpCAM. The note with it: read-out: binding affinity kd; cited from earlier work. The text has this:
An IRDye800-labeled chimeric monoclonal antibody 323/A3 was used to detect a broad range of tumors found clinically. Cell-derived xenograft colon, breast, head and neck, and peritoneal carcinomatosis tumors were implanted orthotopically. Tumor nodules with millimeter dimensions were detected with NIR fluorescence imaging that were not otherwise visible. […] Also, a 7-mer peptide YQ-S2 was labeled with the NIR fluorophore MPA [36]. The peptide was character ...

The target of another data set is T2, HPD*-IRDye800.
T2 chain: HPDMFTRTHSHNGGGSC-IRDye800
In words: Hep3B cell binding.

Residues, ends and D or L forms follow the SMILES beside them. No end group written: not given here. *: point of attachment. X2 = CC1(C)C(=CC=C2CCCC(C=CC3=[N+](CCCCS(=O)(=O)[O-])c4ccc(S(=O)(=O)O)cc4C3(C)C)=C2Oc2ccc(S(=O)(=O)O)cc2)N(CCCCCC(=O)NCCN2C(=O)CC(*)C2=O)c2ccc(S(=O)(=O)O)cc21; IRDye800 = IRDye800 near-infrared fluorophore Bounds are passed on as bounds.

Take `CSCC[C@H](NC(=O)[C@H](CC(=O)O)NC(=O)[C@@H]1CCCN1C(=O)[C@@H](N)Cc1c[nH]cn1)C(=O)N[C@@H](Cc1ccccc1)C(=O)N[C@H](C(=O)N[C@@H](CCCNC(=N)N)C(=O)N[C@H](C(=O)N[C@@H](Cc1c[nH]cn1)C(=O)N[C@@H](CO)C(=O)N[C@@H](Cc1c[nH]cn1)C(=O)N[C@@H](CC(N)=O)C(=O)NCC(=O)NCC(=O)NCC(=O)N[C@@H](CO)C(=O)N[C@@H](CSC1CC(=O)N(CCNC(=O)CCCCCN2C(=CC=C3CCCC(C=CC4=[N+](CCCCS(=O)(=O)[O-])c5ccc(S(=O)(=O)O)cc5C4(C)C)=C3Oc3ccc(S(=O)(=O)O)cc3)C(C)(C)c3cc(S(=O)(=O)O)ccc32)C1=O)C(N)=O)[C@@H](C)O)[C@@H](C)O` (some centres unmarked) [HPD*-IRDye800] (H-HPDMFTRTHSHNGGGSC(X2)-NH2): the half-life at 30 μM in the data set “Serum stability” is 2.6 h. In data set [1], the uptake in kidney result was “High uptake”. Besides, in data set [2], the “acute toxicity on histopathology of major organs” value is “No signs of acute peptide toxicity”. Further, the “time of return of intensity to baseline” value in data set [3] (whole-body fluorescence images post-injection) was ~ 24 h. In addition, in data set [3] (whole-body fluorescence, 300 μM, 200 μL PBS, tail vein, orthotopic HCC PDX in NSG mice, n = 6), the “time of peak uptake by HCC tumor post-injection” value is on record as 1.5 h.

In the case of `CC1(C)C(/C=C/C=C/C=C/C=C2\N(CCCCS(=O)(=O)O)c3ccc4ccccc4c3C2(C)C)=[N+](CCCCS(=O)(=O)[O-])c2ccc3ccccc3c21` [ICG, indocyanine green, reference compound], the “time of maximum tumor absorption post-injection” value in the data set on tumors is over 48 h. Moreover, the “T/B ratio at peak uptake” value in data set [3] (whole-body imaging, 1.5 h post-injection, tail vein, labeled peptides 300 μM, 200 μL, block = unlabeled HPD* before HPD*-IRDye800, ICG 2.46 mg/kg, mean ± SD, n = 6) is given as 1.26 ± 0.05.

As to “HPDMFTRTHSHN [HPD*, unlabeled 12-mer EpCAM target peptide …]”, on EpCAM [4], the “effect of unlabeled peptide on HPD*-IRDye800 fluorescence intensity” value was “decrease significantly”.

For the molecule “PFHDMHSNHTRT [PFH*, unlabeled scrambled control peptide …]”, on EpCAM [4], the “effect of unlabeled peptide on HPD*-IRDye800 fluorescence intensity” value was “did not show an intensity reduction”.

For “SNFYMPL [7-mer EpCAM peptide used to label a pH-sensitive polymeric micelle encapsulating paclitaxel]”, the Kd on EpCAM [5] was 164 nM.

B1: EpCAM (protein)
chain: QEECVCENYKLAVNCFVNNNRQCQCTSVGAQNTVICSKLAAKCLVMKAEMNGSKLGRRAKPEGALQNNDGLYDPDCDESGLFKAKQCNGTSMCWCVNTAGVRRTDKDTEITCSERVRTYWIIIELKHKAREKPYDSKSLRTALQKEITTRYQLDPKFITSILYENNVITIDLVQNSSQKTQNDVDIADVAYYFEKDVKGESLFHSKKMDLTVNGEQLDLDPGQTLIYYVDEKAPEFSMQGLK
Regarding B1, the equilibrium dissociation constant (Kd) with HPD*-IRDye800 was 67 nM.
